{
  "source": "patent US20050026256",
  "proteins": {"B1": {"name": "Hu-Asp2 (human aspartyl protease 2), full-length, expressed from pcDNA3.1(+)Hygro/Hu-Asp2 (protein)", "chain": "TQHGIRLPLRSGLGGAPLGLRLPRETDEEPEEPGRRGSFVEMVDNLRGKSGQGYYVEMTVGSPPQTLNILVDTGSSNFAVGAAPHPFLHRYYQRQLSSTYRDLRKGVYVPYTQGKWEGELGTDLVSIPHGPNVTVRANIAAITESDKFFINGSNWEGILGLAYAEIARPDDSLEPFFDSLVKQTHVPNLFSLQLCGAGFPLNQSEVLASVGGSMIIGGIDHSLYTGSLWYTPIRREWYYEVIIVRVEINGQDLKMDCKEYNYDKSIVDSGTTNLRLPKKVFEAAVKSIKAASSTEKFPDGFWLGEQLVCWQAGTTPWNIFPVISLYLMGEVTNQSFRITILPQQYLRPVEDVATSQDDCYKFAISQSSTGTVMGAVIMEGFYVVFDRARKRIGFAVSACHVHDEFRTAAVEGPFVTLDMEDCGYNIPQTDESTLMTIAYVMAAICALFMLPLCLMVCQWRCLRCLRQQHDDFADDISLLK"}},
  "molecular_target": "T1, synthetic peptide substrate SEVNLDAEFR containing the APP Swedish mutation",
  "T1 chain": "SEVNLDAEFR",
  "data": [
    {"protein": "B1", "values": [
      {"measurement": "hydrolysis of the synthetic peptide substrate, RP-HPLC with UV detection; products identified by Edman sequencing and MALDI-TOF", "result": "the two product peaks which eluted before the intact peptide substrate, were confirmed to have the sequence DAEFR and SEVNL"},
      {"measurement": "β-secretase activity of chromatography fractions (peptide substrate assay)", "result": "Fractions containing both Hu-Asp2 immunoreactivity and β-secretase activity were combined"}
    ]}
  ]
}
